Literature values, collected in paper PMC11128129.

Target: PCSK9 (Homo sapiens) (UniProt Q8NBP7)
Sequence (Q8NBP7 153-692): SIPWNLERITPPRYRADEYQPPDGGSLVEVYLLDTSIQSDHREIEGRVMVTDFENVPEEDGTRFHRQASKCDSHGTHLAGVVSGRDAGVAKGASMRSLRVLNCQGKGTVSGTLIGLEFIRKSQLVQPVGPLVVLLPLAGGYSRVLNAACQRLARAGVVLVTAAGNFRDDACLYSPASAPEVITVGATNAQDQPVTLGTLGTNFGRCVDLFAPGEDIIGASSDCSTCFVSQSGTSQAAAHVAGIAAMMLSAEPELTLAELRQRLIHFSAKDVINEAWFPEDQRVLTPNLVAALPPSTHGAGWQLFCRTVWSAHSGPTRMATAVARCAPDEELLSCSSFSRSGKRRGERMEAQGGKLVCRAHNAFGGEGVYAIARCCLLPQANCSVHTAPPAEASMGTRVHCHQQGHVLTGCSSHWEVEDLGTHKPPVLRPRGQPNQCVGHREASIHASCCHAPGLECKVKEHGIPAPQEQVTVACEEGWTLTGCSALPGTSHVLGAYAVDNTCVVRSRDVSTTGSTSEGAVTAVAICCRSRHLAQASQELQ

- Kd: 0.719 µM
Substance: LDLR (from UniProt P01130)
